Results from patent publication US20080105961A1, “Ligands of the Molecule Fit (Agt-121) and their Pharmaceutical Use” (priority 2004, published 2008).

What was measured:
[1] = target: T1, FIT-NP (FIT N-terminal plus proline-rich region) (Homo sapiens, UniProt Q9BQI5); test: Yeast two-hybrid screen of human brain cDNA library, bait FIT-NP; type: binding; conditions: bait FIT-NP, human brain cDNA library; clones listed highest to lowest interacting strength
T1 construct: expressed in transfected cells
T1 sequence (Q9BQI5 with tags, fused parts or gaps I33M/P40L/N43H/V56A/I186T/P191L/T195L/E211G/Q212H/I230V/T240A/N255T/I269V/G270A/P271T/S276A/V280A/L285P/N289S/A308T/K311T/T318A/S335T/T339A/P340S/N342I/A348T/L352P/P357S/T358A/DEL367-367/L371P/I397L/D402E/F403C/A409E/P432S/P434T/T437A/R454S/S455C/T456S): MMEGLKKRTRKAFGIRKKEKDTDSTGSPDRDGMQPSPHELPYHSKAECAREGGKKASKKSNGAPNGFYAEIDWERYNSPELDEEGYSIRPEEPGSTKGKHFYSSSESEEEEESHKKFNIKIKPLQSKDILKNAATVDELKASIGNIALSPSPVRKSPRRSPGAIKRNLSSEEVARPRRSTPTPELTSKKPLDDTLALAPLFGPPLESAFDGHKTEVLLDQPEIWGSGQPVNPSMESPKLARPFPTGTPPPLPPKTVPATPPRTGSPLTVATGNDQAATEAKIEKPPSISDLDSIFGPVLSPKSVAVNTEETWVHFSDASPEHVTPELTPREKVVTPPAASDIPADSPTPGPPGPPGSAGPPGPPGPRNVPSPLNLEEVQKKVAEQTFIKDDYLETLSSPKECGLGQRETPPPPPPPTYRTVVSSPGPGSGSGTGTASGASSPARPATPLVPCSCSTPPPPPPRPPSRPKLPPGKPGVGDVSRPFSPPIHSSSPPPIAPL
Excerpt: (§1) In order to perform these experiments, two truncated fragments of FIT were constructed to be used as baits in a yeast two-hybrid screen of a human brain cDNA library: one bait consisting of the N-terminal region plus the central proline-rich region, and the other bait consisting of the central proline-rich region alone. The inventors utilised a yeast two-hybrid system which incorporates modifications by Chevray and Nathans (1992), and Vidal et al. (1996) to screen a human brain cDNA library. FIT fragments were PCR amplified, purified and then cloned into an appropriate vector. Sense oligonucleotides for FIT-NP (5′-[…]-3′: SEQ ID NO:72), and FIT-PR (5′-[…]-3′: SEQ ID NO:73), with Sal1 restriction enzyme sites underlined, were used in conjunction with a common antisense oligonucleotide (5′-[…]-3′: SEQ ID NO:74), with the Not1 restriction enzyme site underlined.
(§2) Human brain cDNA inserts were prepared and cloned into the expression vector according to manufacturer's instructions.

[2] = target: T2, FIT-PR (FIT proline-rich region) (Homo sapiens, UniProt Q9BQI5); test: Yeast two-hybrid screen of human brain cDNA library, bait FIT-PR; type: binding; conditions: clones listed highest to lowest interacting strength
T2 construct: expressed in transfected cells
T2 sequence (Q9BQI5 with tags, fused parts or gaps N255T/I269V/G270A/P271T/S276A/V280A/L285P/N289S/A308T/K311T/T318A/S335T/T339A/P340S/N342I/A348T/L352P/P357S/T358A/DEL367-367/L371P/I397L/D402E/F403C/P432S/P434T/T437A/R454S/S455C/T456S): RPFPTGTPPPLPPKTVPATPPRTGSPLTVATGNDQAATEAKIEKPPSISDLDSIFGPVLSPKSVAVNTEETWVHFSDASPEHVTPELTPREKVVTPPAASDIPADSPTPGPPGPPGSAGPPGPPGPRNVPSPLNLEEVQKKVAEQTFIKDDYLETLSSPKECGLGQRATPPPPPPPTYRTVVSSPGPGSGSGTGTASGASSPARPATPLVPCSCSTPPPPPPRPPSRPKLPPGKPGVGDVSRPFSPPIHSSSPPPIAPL
Excerpt: as §1, with “To investigate the mechanism by which FIT regulates energy balance, neural proteins that interact with FIT were identified. In” for “In”
as §2

B1: Homo sapiens regulatory factor X, 2 (RFX2): FIT interacting protein isolated from a human brain cDNA library (protein)
chain: MQNSEGGADSPASVALRPSAAAPPVPASPQRVLVQAASSNPKGAQMQPISLPRVQQVPQQVQPVQHVYPAQVQYVEGGDAVYTNGAIRTAYTYNPEPQMYAPSSTASYFEAPGGAQVTVAASSPPAVPSHSMVGITMDVGGSPIVSSAGAYLIHGGMDSTRHSLAHTSRSSPATLEMAIENLQKSEGITSHKSGLLNSHLQWLLDNYETAEGVSLPRSSLYNHYLRHCQEHKLDPVNAASFGKLIRSVFMGLRTRRLGTRGNSKYHYYGIRLKPDSPLNRLQEDTQYMAMRQQPMHQKPRYRPAQKTDSLGDSGSHSGLHSTPEQTMAVQSQHHQQYIDVSHVFPEFPAPDLGSFLLQDGVTLHDVKALQLVYRRHCEATVDVVMNLQFHYIEKLWLSFWNSKASSSDGPTSLPASDEDPEGAVLPKDKLISLCQCDPILRWMRSCDHILYQALVEILIPDVLRPVPSTLTQAIRNFAKSLEGWLTNAMSDFPQQVIQTKVGVVSAFAQTLRRYTSLNHLAQAARAVLQNTSQINQMLSDLNRVDFANVQEQASWVCQCEESVVQRLEQDFKLTLQQQSSLDQWASWLDSVVTQVLKQHAGSPSFPKAARQFLLKWSFYSSMVIRDLTLRSAASFGSFHLIRLLYDEYMFYLVEHRVAEATGETPIAVMGEFNDLASLSLTLLDKDDMGDEQRGSEAGPDARSLGEPLVKRERSDPNHSLQGI
modifications: left off: large carriers
[1]
  Number of clones: 10
[2]
  Number of clones: 1
